PMC4502909

Biological target: Pig heart citrate synthase (pig) (UniProt P00889)
UniProt P00889, sequence (P00889 28-464): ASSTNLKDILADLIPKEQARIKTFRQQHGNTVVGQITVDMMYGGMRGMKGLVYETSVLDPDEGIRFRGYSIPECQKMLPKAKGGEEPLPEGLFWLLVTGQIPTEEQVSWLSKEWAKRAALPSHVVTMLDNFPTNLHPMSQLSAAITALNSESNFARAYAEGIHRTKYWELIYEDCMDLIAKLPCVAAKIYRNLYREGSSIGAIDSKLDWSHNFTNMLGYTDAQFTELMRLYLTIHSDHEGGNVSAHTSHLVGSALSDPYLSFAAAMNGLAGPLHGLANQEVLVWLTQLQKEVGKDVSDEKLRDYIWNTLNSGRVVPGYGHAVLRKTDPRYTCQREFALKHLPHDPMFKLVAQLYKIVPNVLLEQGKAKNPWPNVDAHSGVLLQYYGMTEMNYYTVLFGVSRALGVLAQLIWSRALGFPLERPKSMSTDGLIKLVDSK

Substance | reduction of the thermal aggregation of citrate synthase (0.8 µM, 44°C, absorbance/light scattering at 650 nm) by 5 µM rHtrA1 [%] | reduction of the thermal aggregation of citrate synthase (0.8 µM, 44°C, absorbance/light scattering at 650 nm) by 5 µM rHtrA2 [%]
rHtrA1 (HtrA1-ΔTM-Ser255Ala-His6), secreted soluble C-terminal region of Staphylococcus aureus strain COL HtrA1 (domain or fragment) | 30 | –
rHtrA2 (HtrA2-ΔTM-Ser619Ala-His6), secreted soluble C-terminal region of Staphylococcus aureus strain COL HtrA2 (domain or fragment) | – | 30
